The text below walks through data of paper PMC7608686, “The interaction of DNA repair factors ASCC2 and ASCC3 is affected by somatic cancer mutations” (Nature Communications, 2020).

Broadly, the Kd is the concentration at which binding is half-saturated.

Ends that are not written are not given here. A value given as a limit tells only on which side of the number the result lay.

T1: ASCC2^1-434 (human, UniProt Q9H1I8 1-434)
T1 chain: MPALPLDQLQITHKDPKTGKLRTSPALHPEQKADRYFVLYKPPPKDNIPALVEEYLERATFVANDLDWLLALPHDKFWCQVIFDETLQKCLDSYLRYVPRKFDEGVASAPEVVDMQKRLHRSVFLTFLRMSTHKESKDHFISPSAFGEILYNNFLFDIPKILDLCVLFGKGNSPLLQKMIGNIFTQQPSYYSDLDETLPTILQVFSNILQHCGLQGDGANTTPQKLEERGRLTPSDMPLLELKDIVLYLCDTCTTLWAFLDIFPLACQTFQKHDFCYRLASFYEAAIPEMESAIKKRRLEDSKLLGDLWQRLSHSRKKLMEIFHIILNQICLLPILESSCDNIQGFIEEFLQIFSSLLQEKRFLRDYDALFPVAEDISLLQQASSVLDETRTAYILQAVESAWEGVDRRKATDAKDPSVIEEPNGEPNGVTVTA

T2: ASCC3^1-22 peptide R5L (human, UniProt Q8N3C0 1-22, R5L, C-terminal amination)
T2 construct: ASCC3, human, N-terminal 22 residues with the somatic cancer substitution R5L; source: synthetic peptide (GL biochem)
T2 peptide (looked up): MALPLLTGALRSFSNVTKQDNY

T3: ASCC3^1-22 peptide R5C (human, UniProt Q8N3C0 1-22, R5C, C-terminal amination)
T3 construct: ASCC3, human, N-terminal 22 residues with the somatic cancer substitution R5C; source: synthetic peptide (GL biochem)
T3 peptide (looked up): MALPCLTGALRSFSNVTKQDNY

T4: ASCC3^1-22 peptide R5H (human, UniProt Q8N3C0 1-22, R5H, C-terminal amination)
T4 construct: ASCC3, human, N-terminal 22 residues with the somatic cancer substitution R5H; source: synthetic peptide (GL biochem)
T4 peptide (looked up): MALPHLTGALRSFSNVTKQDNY

T5: ASCC3^1-22 peptide R5G (human, UniProt Q8N3C0 1-22, R5G, C-terminal amination)
T5 construct: ASCC3, human, N-terminal 22 residues with the somatic cancer substitution R5G; source: synthetic peptide (GL biochem)
T5 peptide (looked up): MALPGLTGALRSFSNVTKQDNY

T6: ASCC2^1-434, elastase fragment of ASCC2^FL (human, UniProt Q9H1I8 1-434)
T6 construct: Proteolytic fragment; also called approximately 50 kDa fragment of ASCC2; source: elastase digestion of the purified ASCC2^FL-ASCC3^NTR complex (proteins from insect cells); not shown: His10, N-terminal, cleaved
T6 sequence (looked up): T1 chain

T7: Seleno-methionine (SeMet)-derivatized ASCC2^1-434 (human, UniProt Q9H1I8 1-434, seleno-methionine (SeMet) in place of methionine)
T7 construct: Unmodified complex (co-produced in High Five cells) was crystallized too; the structure was solved by SAD with the SeMet complex; source: E. coli BL21 (DE3), PASM-5052 medium with SeMet, purified (Ni-NTA, SEC); not shown: His6, N-terminal, cleaved
T7 sequence (looked up): T1 chain

T8: Full-length ASCC2 (ASCC2^FL) (human, UniProt Q9H1I8 1-757)
T8 construct: from a synthetic gene (GeneArt); TEV-cleavable tag; source: insect cells (High Five), recombinant, purified (Ni-NTA, SEC); not shown: His10, N-terminal, cleaved
T8 sequence (looked up): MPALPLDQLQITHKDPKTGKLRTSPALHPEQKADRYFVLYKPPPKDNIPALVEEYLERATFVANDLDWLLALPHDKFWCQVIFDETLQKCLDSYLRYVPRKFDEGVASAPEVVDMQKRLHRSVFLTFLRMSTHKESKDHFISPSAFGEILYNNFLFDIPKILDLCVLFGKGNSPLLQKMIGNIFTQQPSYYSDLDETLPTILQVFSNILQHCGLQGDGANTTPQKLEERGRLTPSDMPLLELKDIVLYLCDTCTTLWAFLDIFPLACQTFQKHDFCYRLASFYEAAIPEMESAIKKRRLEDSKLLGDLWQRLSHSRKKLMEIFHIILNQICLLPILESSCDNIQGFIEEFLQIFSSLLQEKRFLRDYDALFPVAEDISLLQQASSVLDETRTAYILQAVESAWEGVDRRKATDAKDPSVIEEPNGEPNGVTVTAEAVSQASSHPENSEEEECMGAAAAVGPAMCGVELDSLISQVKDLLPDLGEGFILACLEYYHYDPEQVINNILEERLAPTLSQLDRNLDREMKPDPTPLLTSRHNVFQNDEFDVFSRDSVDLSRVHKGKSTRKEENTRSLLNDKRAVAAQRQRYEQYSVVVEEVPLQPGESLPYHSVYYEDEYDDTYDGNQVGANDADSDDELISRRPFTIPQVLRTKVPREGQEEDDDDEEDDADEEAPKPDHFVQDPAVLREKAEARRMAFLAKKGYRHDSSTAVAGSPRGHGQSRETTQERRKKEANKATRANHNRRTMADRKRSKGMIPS

B1: ASCC3^1-22 peptide, wild type (peptide, UniProt Q8N3C0 1-22, looked up)
peptide: MALPRLTGALRSFSNVTKQDNY-NH2
notes: ASCC3, human, N-terminal 22 residues; also called WT ASCC3^1-22; source: synthetic peptide (GL biochem)
B2: ASCC3^16-197 (domain or fragment, human, UniProt Q8N3C0 16-197, looked up)
chain: VTKQDNYNEEVADLKIKRSKLHEQVLDLGLTWKKIIKFLNEKLEKSKMQSINEDLKDILHAAKQIVGTDNGREAIESGAAFLFMTFHLKDSVGHKETKAIKQMFGPFPSSSATAACNATNRIISHFSQDDLTALVQMTEKEHGDRVFFGKNLAFSFDMHDLDHFDELPINGETQKTISLDYK
notes: also called partial N-arm deletion variant; source: E. coli BL21 (DE3), purified (Ni-NTA, SEC); not shown: His6, N-terminal, cleaved
B3: ASCC3^1-161 (domain or fragment, human, UniProt Q8N3C0 1-161, looked up)
chain: MALPRLTGALRSFSNVTKQDNYNEEVADLKIKRSKLHEQVLDLGLTWKKIIKFLNEKLEKSKMQSINEDLKDILHAAKQIVGTDNGREAIESGAAFLFMTFHLKDSVGHKETKAIKQMFGPFPSSSATAACNATNRIISHFSQDDLTALVQMTEKEHGDRV
notes: ASCC3, human, residues 1-161 (lacks the C-arm); source: E. coli BL21 (DE3), purified (Ni-NTA, SEC); not shown: His6, N-terminal, cleaved
B4: ASCC3^1-22 peptide R5L (peptide)
peptide: MALPLLTGALRSFSNVTKQDNY-NH2
B5: ASCC3^1-22 peptide R5G (peptide)
peptide: MALPGLTGALRSFSNVTKQDNY-NH2
B6: ASCC2^1-434 (domain or fragment, human, UniProt Q9H1I8 1-434, looked up)
chain: T1 chain
notes: source: E. coli BL21 (DE3), purified (Ni-NTA, SEC); not shown: His6, N-terminal, cleaved
B7: ASCC3^1-22 peptide R5H (peptide)
peptide: MALPHLTGALRSFSNVTKQDNY-NH2
B8: ASCC3^1-197 (domain or fragment, human, UniProt Q8N3C0 1-197, looked up)
chain: MALPRLTGALRSFSNVTKQDNYNEEVADLKIKRSKLHEQVLDLGLTWKKIIKFLNEKLEKSKMQSINEDLKDILHAAKQIVGTDNGREAIESGAAFLFMTFHLKDSVGHKETKAIKQMFGPFPSSSATAACNATNRIISHFSQDDLTALVQMTEKEHGDRVFFGKNLAFSFDMHDLDHFDELPINGETQKTISLDYK
notes: as for B6
B9: ASCC3^1-207, elastase fragment of ASCC3^NTR (domain or fragment, human, UniProt Q8N3C0 1-207, looked up)
chain: MALPRLTGALRSFSNVTKQDNYNEEVADLKIKRSKLHEQVLDLGLTWKKIIKFLNEKLEKSKMQSINEDLKDILHAAKQIVGTDNGREAIESGAAFLFMTFHLKDSVGHKETKAIKQMFGPFPSSSATAACNATNRIISHFSQDDLTALVQMTEKEHGDRVFFGKNLAFSFDMHDLDHFDELPINGETQKTISLDYKKFLNEHLQEA
notes: ASCC3, human, N-terminal 207 residues, mapped by mass spectrometric fingerprinting; Proteolytic fragment; also called N-terminal, 207-residue fragment of ASCC3; source: elastase digestion of the purified ASCC2^FL-ASCC3^NTR complex (proteins from insect cells); not shown: His10, N-terminal, cleaved
B10: ASCC3^1-207 (domain or fragment, human, UniProt Q8N3C0 1-207, looked up)
chain: B9 chain
notes: ASCC3, human, residues 1-207; residues 1-186 traced in the model; source: insect cells, recombinant, purified (Ni-NTA, SEC); not shown: His10, N-terminal, cleaved
B11: ASCC3 N-terminal region (ASCC3^NTR; residues 1-400) (domain or fragment, human, UniProt Q8N3C0 1-400, looked up)
chain: MALPRLTGALRSFSNVTKQDNYNEEVADLKIKRSKLHEQVLDLGLTWKKIIKFLNEKLEKSKMQSINEDLKDILHAAKQIVGTDNGREAIESGAAFLFMTFHLKDSVGHKETKAIKQMFGPFPSSSATAACNATNRIISHFSQDDLTALVQMTEKEHGDRVFFGKNLAFSFDMHDLDHFDELPINGETQKTISLDYKKFLNEHLQEACTPELKPVEKTNGSFLWCEVEKYLNSTLKEMTEVPRVEDLCCTLYDMLASIKSGDELQDELFELLGPEGLELIEKLLQNRITIVDRFLNSSNDHRFQALQDNCKKILGENAKPNYGCQVTIQSEQEKQLMKQYRREEKRIARREKKAGEDLEVSEGLMCFDPKELRIQREQALLNARSVPILSRQRDADVEKI
notes: ASCC3, human, N-terminal region, residues 1-400; The results say insect cells; source: insect cells, recombinant, purified (Ni-NTA; SEC step omitted); not shown: His10, N-terminal, cleaved
B12: ASCC3^1-22 peptide R5C (peptide)
peptide: MALPCLTGALRSFSNVTKQDNY-NH2

In assay [1] the target is B6. Nature of the assay: ITC; iTC200; ASCC3^1-22 peptide (10-15 µM) in the sample cell, ASCC2^1-434 (200 µM or 400 µM) in the syringe; 20 mM HEPES-NaOH, pH 7.5, 100 mM NaCl; 25 °C; stoichiometry fixed to 1. To be noted: both partners purified. For orientation: In ITC the heat of successive injections is recorded.
Assay [2] has as its target B6. The assay can be described thus: ITC; iTC200; ASCC3 variant (10 µM) in the sample cell, ASCC2 variant (100 µM) in the syringe; 20 mM HEPES-NaOH, pH 7.5, 100 mM NaCl; 25 °C; stoichiometry fixed to 1. To be noted: both partners purified.
Assay [3] concerns the target T1, ASCC2^1-434. Nature of the assay: ITC.
The next assay has as its target T2, ASCC3^1-22 peptide R5L. Nature of the assay: ITC; iTC200; ASCC3^1-22 peptide (10-15 µM) in the sample cell, ASCC2^1-434 (200 µM or 400 µM) in the syringe; 20 mM HEPES-NaOH, pH 7.5, 100 mM NaCl; 25 °C; stoichiometry fixed to 1. The following applies: both partners purified.
The target of another assay is T3, ASCC3^1-22 peptide R5C. The assay is described as above. To be noted: both partners purified.
Another assay has as its target T4, ASCC3^1-22 peptide R5H. The assay is described as above. To be noted: both partners purified.
The next assay concerns the target T5, ASCC3^1-22 peptide R5G. Described as above. The following applies: both partners purified.
Assay [4] concerns the target T6, ASCC2^1-434, elastase fragment of …. The assay can be described thus: SEC; SEC of the fragments left after elastase digestion of the ASCC2^FL-ASCC3^NTR complex. To be noted: both partners purified.
The target of assay [5] is T7, Seleno-methionine (SeMet)-derivatized …. The assay can be described thus: crystal structure; SeMet SAD, 2.7 Å; complex reconstituted by SEC from SeMet ASCC2^1-434 (E. coli) and ASCC3^1-207 (insect cells); hanging drop, 4 °C, 0.1 M MES-NaOH, pH 6.5. To be noted: both partners purified. On the technique in general: In gel filtration, larger molecules generally elute earlier.

In assay [6] the target is T8, Full-length ASCC2 (ASCC2^FL). The assay can be described thus: ITC; iTC200; ASCC3 variant (10 µM) in the sample cell, ASCC2 variant (100 µM) in the syringe; 20 mM HEPES-NaOH, pH 7.5, 100 mM NaCl; 25 °C; stoichiometry fixed to 1. To be noted: both partners purified.

In turn, B1 registered a Kd with ASCC2^1-434 [1] of 2 µM.
In turn, B2 registered an equilibrium dissociation constant (Kd) in the assay with ASCC2^1-434 [2] of 0.483 µM.
As for B3, the Kd with ASCC2^1-434 [2] is 0.0477 µM.
Turning to B4, binding with ASCC2^1-434 [3] was characterised by a dissociation constant (Kd) of 15.4 µM.
In the assay with ASCC2^1-434 [3], B5 registered a Kd of 21.6 µM.
Take B6: the results for the “fold weaker interaction than with WT ASCC3^1-22” value with ASCC3^1-22 peptide R5L and with ASCC3^1-22 peptide R5G were approximately 8 fold and approximately 11 fold, respectively. Also, the “fold reduced affinity compared to WT ASCC3^1-22” value in the assay with ASCC3^1-22 peptide R5C and with ASCC3^1-22 peptide R5H was more than 20 fold in each case.
On to B7, for which the Kd in the assay with ASCC2^1-434 [3] was 43.8 µM.
For B8, in the assay with ASCC2^1-434 [2], the Kd is 0.0038 µM.
As to B9, the binding result in [4] is given as “binds”.
Turning to B10, in assay [5], the binding result is reported as “binds”.
Molecule B11 had a Kd in assay [6] of 0.0035 µM.
On to B12, for which, in the assay with ASCC2^1-434 [3], the Kd was 46.5 µM.
